Assay results from patent publication US20130289246A1 (VANDERBILT UNIVERSITY, published 2013).
Where two headings read alike, the source gives them in different places.

Tests used:
[1] = molecular target: T1, recombinant soluble 1968 H3 HA (A/Aichi/2/1968) (Influenza A virus A/Aichi/2/1968 (H3N2), UniProt P03437 17-530); assay: ELISA, supernate
[2] = molecular target: T2, recombinant soluble trimeric 1918 H1 HA (A/South Carolina/1/1918, wild type) (Influenza A virus A/South …, UniProt Q9WFX3 18-529); assay: ELISA, supernate
[3] = molecular target: T3, HA of A/California/04/2009 (H1N1) virus (Influenza A virus (H1N1)); assay: cell-based or functional assay
[4] = molecular target: HA of A/Vietnam/1203/2004 (H5N1) virus (Influenza A virus (H5N1)); assay: cell-based or functional assay
[5] = molecular target: HA of A/Alabama/1/1981 (H3N2) virus (Influenza A virus (H3N2)); assay: cell-based or functional assay
[6] = molecular target: HA of A/Hong Kong/1/1968 (H3N2) virus (Influenza A virus (H3N2), UniProt Q91MA7 17-566); assay: cell-based or functional assay
[7] = molecular target: HA of A/swine/Iowa/15/1930 (H1N1) virus (Influenza A virus (H1N1)); assay: cell-based or functional assay
[8] = molecular target: HA of A/New Caledonia/20/1999 (H1N1) virus (Influenza A virus (H1N1)); assay: cell-based or functional assay
[9] = molecular target: HA of A/Brisbane/59/2007 (H1N1) virus (Influenza A virus (H1N1)); assay: cell-based or functional assay
[10] = molecular target: HA of A/Weiss/1943 (H1N1) virus (Influenza A virus (H1N1)); assay: cell-based or functional assay
[11] = molecular target: T3, HA of A/California/04/2009 (H1N1) virus; assay: cell-based or functional assay; remark: listed apart in the source
[12] = molecular target: HA of A/South Carolina/1/1918 (H1N1), wild type, on VLP (Influenza A virus A/South …, UniProt Q9WFX3 18-566); assay: cell-based or functional assay
[13] = molecular target: HA of A/L3/1947 (H1N1) virus (Influenza A virus (H1N1)); assay: cell-based or functional assay
[14] = molecular target: HA of A/USSR/92/1977 (H1N1) virus (Influenza A virus (H1N1)); assay: cell-based or functional assay
[15] = molecular target: HA of A/New Jersey/11/1976 (H1N1) virus (Influenza A virus (H1N1)); assay: cell-based or functional assay
[16] = molecular target: T1, recombinant soluble 1968 H3 HA …; assay: ELISA, supernate; remark: listed apart in the source
[17] = molecular target: T2, recombinant soluble trimeric 1918 H1 HA …; assay: ELISA, supernate; remark: listed apart in the source
[18] = molecular target: T1, recombinant soluble 1968 H3 HA …; assay: ELISA, unconcentrated supernate
[19] = molecular target: HA of A/Ann Arbor/23/1957 (H2N2) virus (Influenza A virus (H2N2)); assay: cell-based or functional assay
[20] = molecular target: HA of A/Japan/305/1957 (H2N2) virus (Influenza A virus (H2N2), UniProt P03451 16-562); assay: cell-based or functional assay
[21] = molecular target: HA of A/swine/Missouri/2124514/2006 (H2N3) virus (Influenza A virus (H2N3)); assay: cell-based or functional assay
[22] = molecular target: HA of A/Ann Arbor/7/1967 (H2N2) virus (Influenza A virus (H2N2)); assay: cell-based or functional assay
[23] = molecular target: HA of A/Albany/6/1958 (H2N2) virus (Influenza A virus (H2N2)); assay: cell-based or functional assay
[24] = molecular target: HA of A/Netherlands/65/1963 (H2N2) virus (Influenza A virus (H2N2)); assay: cell-based or functional assay
[25] = molecular target: HA of A/Rockville Illinois/5/1957 (H2N2) virus (Influenza A virus (H2N2)); assay: cell-based or functional assay
[26] = molecular target: T2, recombinant soluble trimeric 1918 H1 HA …; assay: biolayer interferometry (Octet Red), His-tagged HA on anti-Penta-HIS tips

Binder | OD [1] [OD] | OD [2] [OD] | HAI activity [3] [µg/mL] | HAI activity [4] [µg/mL] | HAI activity [5] [µg/mL] | HAI activity [6] [µg/mL] | HAI activity [7] [µg/mL] | HAI activity [8] [µg/mL] | HAI activity [9] [µg/mL] | HAI activity [10] [µg/mL] | HAI activity [11] [µg/mL] | HAI activity [12] [µg/mL] | HAI activity [13] [µg/mL] | HAI activity [14] [µg/mL] | HAI activity [15] [µg/mL] | OD [16] [OD] | OD [17] [OD] | binding result [18] | also measured
mAb 7A13 (antibody, V domains shown) VH: QVQLQESAPGLVKPSGTLSLTCAVSGASLSSSDWWTWVRQPPGKGLEWIGEIHHGGSTNSNPSLQSRVTISIDKSKKQFSLKLTSVTVADTAVYYCARAPGADAGPYSENIHHWGQGTLVTVS VL: QLVLTQSPSASASLGASVKLTCTLSSRHSDYAIGWHQQQPGKGPRYLMKLNPDGSHTKGDGIPDRFSGSSSGAERYLTISNLLSEDEADYYCQTWGTGIQVFGGGTRLTVIS | 0.265 | 0.076 | > 20 | > 20 | > 20 | 0.7 |  |  |  |  |  |  |  |  |  |  |  |  | 
mAb 4A10 (antibody, V domains shown) VH: EVQLVESGGGLVQPGGSLRLSCAASGFSFSSYWMTWVRQAPGKGLEWVANIKQYGSEKYYVDSVKGRFTISRDNAKNSLYLQMNSLRDDDTAVYYCARMGSYLDTYYYHYGMDVWGQGTTVTVS VL: QSVLTQPPSLSGAPGQRVTISCTGSSSNIGADYDVYWYQHLPGTAPKLLMYGDGYRPSGVPDRFSGSKSGTSASLAITGLQAEDEADYYCQSYDSSLSRRVVFGGGTKLTVLG |  |  |  |  |  |  | 0.63 | > 20 | > 20 | > 20 | 0.16 | 0.08 | > 20 | 0.32 | 2.5 | 0.072 | 0.725 | no binding | 
mAb 8F8 (antibody, V domains shown) VH: EVQLLESGGGVVQPGRSLRLSCAASGFMFSSYVMHWVRQPPGKGLEWVAVIWYDGSKTYFADSMRGRLTVSRDNSKNALYLQMNRLRAEDTAVYYCARQQDSGYSGPEVSYYSHYGMDVWGQGTTVIVS VL: QSVLTQSPSASGTPGRAITISCSGSSSNIGSNPVNWYQQLPGAAPKLLIYADEHRPSGVPDRFSGPKSGTSASLAISGLQSEDEADYYCAAWDDSLSGPAVVFGGGTKLTVLG | 0.079 | 0.07 | > 20 | > 20 |  | > 20 |  |  |  |  |  |  |  |  |  |  |  |  | HAI activity [19]: 0.1 µg/mL; HAI activity [20]: 0.4 µg/mL; HAI activity [21]: 0.63 µg/mL; HAI activity [22]: > 20 µg/mL; HAI activity [23]: 0.32 µg/mL; HAI activity [24]: 0.1 µg/mL; HAI activity [25]: 0.4 µg/mL
mAb 2K11 (antibody, V domains shown) VH: EVQLVESGGGLVQPGGSLRLSCVASTFSLINYWMTWVRQAPGKGLEWVANIKQDGFEKYYVDSVKGRFTISRDNAKNSLYLQMNSLRVEDTAVYYCARQGSYADTYFYHYGMDVWGQGTTVTVS VL: QSALTQPPSVSGAPGQRVTISCTGSSSNIGAGYDAYWYQQLPGTAPKLLIYGNSNRLSGVPDRFSASKSGTSASLAITGLQAEDEADYYCQSYDSSLSIFGGGTKLTVLR |  |  |  |  |  |  | 0.16 | > 20 | > 20 | > 20 | 0.63 | 0.16 | > 20 | 0.32 | 1.3 | 0.08 | 0.311 | no binding | 
mAb 2O10 (antibody, V domains shown) VH: EVQLVESGGGLVQPGGSLRLSCAASGFTFNSYWMTWVRQAPGKGLEWVANINQDGSEKFFVDSVKGRFTISRDNAKTSLYLQMNSLRVEDTAVYYCAREGAPYDTYYYYYAMDVWGQGTTVTVS VL: QSVLTQPPSVSGAPGQRVTISCTGTSSNIGAGYGVHWYQQLPGAAPKLLVYGNSNRPSGVPDRFSGSKSGTSASLAITGLQAEDEADYYCQSYDISLSGSNVFGTGTKVTVLG |  |  |  |  |  |  | 0.08 | > 20 | > 20 | > 20 | 0.32 | 0.04 | > 20 | 2.5 | 2.5 | 0.077 | 0.308 | no binding | 
mAb 25J3 (antibody, V domains shown) VH: QVQLQESGPGLVRPSETLSLTCNVSGDSINDYYWSWIRQPPGKGLEWIGYIYYSGSTNYNPSLNSRVTISVEMSKNQFSLILNSVTAADTAVYYCARVDYDSGGSFDPWGQGTLVTVS VL: QSVLTQPPSVSGAPGQRVTISCTGSSSNIGAGYDVHWYQQLPGTAPKLLIYGNSNRPSGVPDRFSGSKSGTSASLAITGLQAEDEADFYCQSYDSRLSGYVFGTGTKVTVLG | 0.623 | 0.07 |  |  |  |  |  |  |  |  |  |  |  |  |  |  |  |  | 
5J8 Fab (Fab, V domains shown) VH: EVQLVESGPGLVKPSDILSLTCAVSGYSISSNYYWGWIRQPPGKGLEWIGSIYHSGSTYYKPSLESRLGISVDTSKNQFSLKLSFVSAADTAVYYCARHVRSGYPDTAYYFDKWGQGTLVTVS VL: SYVLTQPPSVSVAPGETARISCGGNNIGTKVLHWYQQTPGQAPVLVVYDDSDRPSGIPERFSGSNSGNTATLTISRVEVGDEADYYCQVWDISTDQAVFGGGTKLTVLG |  |  |  |  |  |  |  |  |  |  |  |  |  |  |  |  |  |  | Kd [26]: 190 nM; koff [26]: 0.036 s⁻¹; kon [26]: 200000 M⁻¹ s⁻¹
mAb 18G6 (antibody, V domains shown) VH: QVQLKESGPGLVKPSETLSLTCTVSGGSISSSNYNWGWIRQPPGKGLEWIGSVYYSGSTYFNPSLKSRVTISVDTSKNQFSLKLTSVTAADTAVYYCARLIAFYYDTNGYTWGQGTLVTVS VL: NSIMTQSPFTLSASVGDKVTITCRASQSISPWLAWYQQKPGKAPKLLIYKASSLETGVPSRFSGSESGTEFTLTISGLQPDDFATYYCQQYSSFARTFGQGTKVEIKR | 0.073 | 0.075 |  |  |  |  |  |  |  |  |  |  |  |  |  |  |  |  | 
mAb 11J19 (antibody, V domains shown) VH: EVQLQESGPGLVKPSETLSLSCTVSGGSITRSSYYWGWIRQPPGKGLEWIGNIYYSGTTYYNPSLKSRVTISVDTSKNQFSLKLSSVTAADTAVYYCARLYGSGLDYWGQGTLVTVS VL: DIQLTQSPSFLSASVGDRVTITCRASQGSSRYVAWYQQKPGKAPKLLILAASTLHTGVPSRFSGSGSGTEFTLTISSLQPEDFATYSCQQLNGFLLTFGGGTKVEIKR | 0.895 | 0.079 | > 20 | > 20 | > 20 | 2.5 |  |  |  |  |  |  |  |  |  |  |  |  | 
mAb 2G1 (antibody, V domains shown) VH: EVQLVESGAEVKKPGSSVKVSCKASGGTFITHVFTWVRQAPGQGLEWVGGFIAIFGTSNYAQKFQGRVTITADESTSTAYMELTSLTSEDTAVYYCARGISGSYGWFDPWGQGTLVTVS VL: DIQLTQSPSSLSASVGDRVTITCQASQDIRKYLNWYQQKPGKAPNLLIYDASNVKTGVPSRFRGSGSGTDFTFTISSLQPEDIATYYCQQYDNLPITFGQGTRLEIKR |  |  | > 50 | > 50 | > 50 | 5 |  |  |  |  |  |  |  |  |  |  |  |  | HAI activity [19]: 0.025 µg/mL; HAI activity [20]: 0.7 µg/mL; HAI activity [21]: 0.63 µg/mL; HAI activity [22]: > 20 µg/mL; HAI activity [23]: 0.32 µg/mL; HAI activity [24]: 0.05 µg/mL; HAI activity [25]: 0.2 µg/mL
